Ten sequences from the supplement of paper PMC11316812 can be followed below.

One series concerns MCF7. The experiment in a line: percentage of EdU-negative (G0-arrested) nuclei per well, 72 h; higher = more G0 arrest. As to conditions: reference: sequence is the full UniProt precursor, the tested protein was the secreted form or ectodomain.
The next series deals with hTERT-HMEC. Described as above. As to conditions: reference: sequence is the full UniProt precursor, the tested protein was the secreted form or ectodomain.
Where [1] appears, read: protein concentration 0.0225 µM.
[2] abbreviates: protein concentration 0.03025 µM.
Setting [3] is: protein concentration 0.3025 µM.
Where [4] appears, read: protein concentration 0.0197143 µM.
The mark [5] stands for this setting: protein concentration 0.197143 µM.
Where [6] appears, read: protein concentration 0.020665 µM.
Setting [7] is: protein concentration 0.20665 µM.
Setting [8] is: protein concentration 0.0194286 µM.
The mark [9] stands for this setting: protein concentration 0.194286 µM.
Where [10] appears, read: protein concentration 0.01625 µM.
[11] abbreviates: protein concentration 0.1625 µM.
The mark [12] stands for this setting: protein concentration 0.00875 µM.
Where [13] appears, read: protein concentration 0.0875 µM.

± gives the standard deviation of the averaged measurements.
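Note: secreted proteins added to cultured cells, EdU pulse at the end, nuclei found by Hoechst imaging, EdU status from nuclear versus surrounding ring intensity ratio, PBS as neutral control.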

For “MVMRPLWSLLLWEALLPITVTGAQVLSKVGGSVLLVAARPPGFQVREAIWRSLWPSEELLATFFRGSLETLYHSRFLGRAQLHSNLSLELGPLESGDSGNFSVLMVDTRGQPWTQTLQLKVYDAVPRPVVQVFIAVERDAQPSKTCQVFLSCWAPNISEITYSWRRETTMDFGMEPHSLFTDGQVLSISLGPGDRDVAYSCIVSNPVSWDLATVTPWDSCHHEAAPGKASYKDVLLVVVPVSLLLMLVTLFSAWHWCPCSGKKKKDVHADRVGPETENPLVQDLP [Q9P0V8]”, the “percentage of EdU-negative” value amounted to 34.5 ± 7.9% in the series with MCF7 (setting [1]), 28.8 ± 0.29% in the series with MCF7 (protein concentration 0.225 µM), 7.18 ± 1.4% in the series with hTERT-HMEC (setting [1]) and 4 ± 0.28% in the series with hTERT-HMEC (protein concentration 0.225 µM).

Turning to “MGVCGYLFLPWKCLVVVSLRLLFLVPTGVPVRSGDATFPKAMDNVTVRQGESATLRCTIDNRVTRVAWLNRSTILYAGNDKWCLDPRVVLLSNTQTQYSIEIQNVDVYDEGPYTCSVQTDNHPKTSRVHLIVQVSPKIVEISSDISINEGNNISLTCIATGRPEPTVTWRHISPKAVGFVSEDEYLEIQGITREQSGDYECSASNDVAAPVVRRVKVTVNYPPYISEAKGTGVPVGQKGTLQCEASAVPSAEFQWYKDDKRLIEGKKGVKVENRPFLSKLIFFNVSEHDYGNYTCVASNKLGHTNASIMLFGPGAVSEVSNGTSRRAGCVWLLPLLVLHLLLKF [Q9P121]”, the “percentage of EdU-negative” value with MCF7 (setting [2]) worked out at 24.73 ± 0.092%; in the series on MCF7 (setting [3]), 28.9 ± 1.9%; in the series on hTERT-HMEC (setting [2]) it was 5.01 ± 0.68%; in the series with hTERT-HMEC (setting [3]), 6.84 ± 0.93%.

As to “MQPRTPLVLCVLLSQVLLLTSAEDLDCTPGFQQKVFHINQPAEFIEDQSILNLTFSDCKGNDKLRYEVSSPYFKVNSDGGLVALRNITAVGKTLFVHARTPHAEDMAELVIVGGKDIQGSLQDIFKFARTSPVPRQKRSIVVSPILIPENQRQPFPRDVGKVVDSDRPERSKFRLTGKGVDQEPKGIFRINENTGSVSVTRTLDREVIAVYQLFVETTDVNGKTLEGPVPLEVIVIDQNDNRPIFREGPYIGHVMEGSPTGTTVMRMTAFDADDPATDNALLRYNIRQQTPDKPSPNMFYIDPEKGDIVTVVSPALLDRETLENPKYELIIEAQDMAGLDVGLTGTATATIMIDDKNDHSPKFTKKEFQATVEEGAVGVIVNLTVEDKDDPTTGAWRAAYTIINGNPGQSFEIHTNPQTNEGMLSVVKPLDYEISAFHTLLIKVENEDPLVPDVSYGPSSTATVHITVLDVNEGPVFYPDPMMVTRQEDLSVGSVLLTVNATDPDSLQHQTIRYSVYKDPAGWLNINPINGTVDTTAVLDRESPFVDNSVYTALFLAIDSGNPPATGTGTLLITLEDVNDNAPFIYPTVAEVCDDAKNLSVVILGASDKDLHPNTDPFKFEIHKQAVPDKVWKISKINNTHALVSLLQNLNKANYNLPIMVTDSGKPPMTNITDLRVQVCSCRNSKVDCNAAGALRFSLPSVLLLSLFSLACL”, the “percentage of EdU-negative” value amounted to 24.7 ± 1.2% in the series on MCF7 (setting [1]), 27.1 ± 0.61% in the series on MCF7 (protein concentration 0.225 µM), 4.14 ± 0.25% in the series with hTERT-HMEC (setting [1]) and 9.2557 ± 0.0081% in the series on hTERT-HMEC (protein concentration 0.225 µM).

As for “MHPHRDPRGLWLLLPSLSLLLFEVARAGRAVVSCPAACLCASNILSCSKQQLPNVPHSLPSYTALLDLSHNNLSRLRAEWTPTRLTQLHSLLLSHNHLNFISSEAFSPVPNLRYLDLSSNQLRTLDEFLFSDLQVLEVLLLYNNHIMAVDRCAFDDMAQLQKLYLSQNQISRFPLELVKEGAKLPKLTLLDLSSNKLKNLPLPDLQKLPAWIKNGLYLHNNPLNCDCELYQLFSHWQYRQLSSVMDFQEDLYCMNSKKLHNVFNLSFLNCGEYKERAWEAHLGDTLIIKCDTKQQGMTKVWVTPSNERVLDEVTNGTVSVSKDGSLLFQQVQVEDGGVYTCYAMGETFNETLSVELKVHNFTLHGHHDTLNTAYTTLVGCILSVVLVLIYLYLTPCRCWCRGVEKPSSHQGDSLSSSMLSTTPNHDPMAGGDKDDGFDRRVAFLEPAGPGQGQNGKLKPGNTLPVPEATGKGQRRMSDPESVSSVFSDTPIVV [Q86WK6]”, the “percentage of EdU-negative” value in the series with MCF7 (setting [4]) is 21.9 ± 0.6%; in the series with MCF7 (setting [5]), 29.5 ± 1.3%; with hTERT-HMEC (setting [4]), 6.07 ± 0.64%; in the series with hTERT-HMEC (setting [5]) it was 17.3 ± 0.43%.

In the case of “MGHRFLRGLLTLLLPPPPLYTRHRMLGPESVPPPKRSRSKLMAPPRIGTHNGTFHCDEALACALLRLLPEYRDAEIVRTRDPEKLASCDIVVDVGGEYDPRRHRYDHHQRSFTETMSSLSPGKPWQTKLSSAGLIYLHFGHKLLAQLLGTSEEDSMVGTLYDKMYENFVEEVDAVDNGISQWAEGEPRYALTTTLSARVARLNPTWNHPDQDTEAGFKRAMDLVQEEFLQRLDFYQHSWLPARALVEEALAQRFQVDPSGEIVELAKGACPWKEHLYHLESGLSPPVAIFFVIYTDQAGQWRIQCVPKEPHSFQSRLPLPEPWRGLRDEALDQVSGIPGCIFVHASGFIGGHRTREGALSMARATLAQRSYLPQIS [Q9HB07]”, the “percentage of EdU-negative” value amounted to 26.7 ± 1.3% in the series with MCF7 (setting [1]), 27.2 ± 0.95% in the series on MCF7 (protein concentration 0.225 µM), 4.42 ± 0.079% with hTERT-HMEC (setting [1]) and 11 ± 1.7% in the series with hTERT-HMEC (protein concentration 0.225 µM).

Regarding “MKVSEAALSLLVLILIITSASRSQPKVPEWVNTPSTCCLKYYEKVLPRRLVVGYRKALNCHLPAIIFVTKRNREVCTNPNDDWVQEYIKDPNLPLLPTRNLSTVKIITAKNGQPQLLNSQ”, the “percentage of EdU-negative” value in the series with MCF7 (setting [6]) was determined as 22.9 ± 1.1%; in the series with MCF7 (setting [7]), 25.9 ± 2.8%; with hTERT-HMEC (setting [6]), 5.16 ± 1.1%; in the series with hTERT-HMEC (setting [7]) it was 5.51 ± 0.14%.

In the case of “MRLPRRAALGLLPLLLLLPPAPEAAKKPTPCHRCRGLVDKFNQGMVDTAKKNFGGGNTAWEEKTLSKYESSEIRLLEILEGLCESSDFECNQMLEAQEEHLEAWWLQLKSEYPDLFEWFCVKTLKVCCSPGTYGPDCLACQGGSQRPCSGNGHCSGDGSRQGDGSCRCHMGYQGPLCTDCMDGYFSSLRNETHSICTACDESCKTCSGLTNRDCGECEVGWVLDEGACVDVDECAAEPPPCSAAQFCKNANGSYTCEECDSSCVGCTGEGPGNCKECISGYAREHGQCADVDECSLAEKTCVRKNENCYNTPGSYVCVCPDGFEETEDACVPPAEAEATEGESPTQLPSREDL [Q6UXH1]”, the “percentage of EdU-negative” value in the series with MCF7 (setting [1]) stood at 23.9 ± 1.1%; in the series on MCF7 (protein concentration 0.225 µM), 26 ± 1.1%; in the series on hTERT-HMEC (setting [1]), 4.4 ± 0.85%; in the series on hTERT-HMEC (protein concentration 0.225 µM), 6.12 ± 0.13%.

In the case of “MGVAARPPALRHWFSHSIPLAIFALLLLYLSVRSLGARSGCGPRAQPCVPGETAPFQVRQESGTLEAPERKQPPCLGPRGMLGRMMRRFHASLKPEGDVGLSPYLAGWRALVEFLTPLGSVFAFATREAFTKVTDLEARVHGPDAEHYWSLVAMAAWERRAGLLEQPGAAPRDPTRSSGSRTLLLLHRALRWSQLCLHRVATGALGGPDAGVQCSDAYRAALGPHHPWLVRQTARLAFLAFPGRRRLLELACPGATEAEARAALVRAAGTLEDVYNRTQSLLAERGLLQLA [A6NH11]”, the “percentage of EdU-negative” value with MCF7 (setting [8]) stood at 23.4 ± 0.51%; in the series on MCF7 (setting [9]), 25.5 ± 2.7%; in the series on hTERT-HMEC (setting [8]) it was 5.02 ± 1.8%; with hTERT-HMEC (setting [9]) it was 5.53 ± 0.54%.

“MEVTCLLLLALIPFHCRGQGVYAPAQAQIVHAGQACVVKEDNISERVYTIREGDTLMLQCLVTGHPRPQVRWTKTAGSASDKFQETSVFNETLRIERIARTQGGRYYCKAENGVGVPAIKSIRVDVQYLDEPMLTVHQTVSDVRGNFYQEKTVFLRCTVNSNPPARFIWKRGSDTLSHSQDNGVDIYEPLYTQGETKVLKLKNLRPQDYASYTCQVSVRNVCGIPDKAITFRLTNTTAPPALKLSVNETLVVNPGENVTVQCLLTGGDPLPQLQWSHGPGPLPLGALAQGGTLSIPSVQARDSGYYNCTATNNVGNPAKKTVNLLVRSMKNATFQITPDVIKESENIQLGQDLKLSCHVDAVPQEKVTYQWFKNGKPARMSKRLLVTRNDPELPAVTSSLELIDLHFSDYGTYLCMASFPGAPVPDLSVEVNISSETVPPTISVPKGRAVVTVREGSPAELQCEVRGKPRPPVLWSRVDKEAALLPSGLPLEETPDGKLRLERVSRDMSGTYRCQTARYNGFNVRPREAQVQLNVQFPPEVEPSSQDVRQALGRPVLLRCSLLRGSPQRIASAVWRFKGQLLPPPPVVPAAAEAPDHAELRLDAVTRDSSGSYECSVSNDVGSAACLFQVSAKAYSPEFYFDTPNPTRSHKLSKNYSYVLQWTQREPDAVDPVLNYRLSIRQLNQHNAVVKAIPVRRVEKGQLLEYILTDLRVPHSYEVRLTPYTTFGAGDMASRIIHYTEPINSPNLSDNTCHFEDEKICGYTQDLTDNFDWTRQNALTQNPKRSPNTGPPTDISGTPEGYYMFIETSRPRELGDRARLVSPLYNASAKFYCVSFFYHMYGKHIGSLNLLVRSRNKGALDTHAWSLSGNKGNVWQQAHVPISPSGPFQIIFEGVRGPGYLGDIAIDDVTLKKGECPRKQTDPNKVVVMPGSGAPCQSSPQLWGPMAIFLLALQR [Q8NFP4]”: the “percentage of EdU-negative” value was 25.1 ± 2% in the series with MCF7 (setting [10]), 26.2 ± 1.5% in the series with MCF7 (setting [11]), 4.84 ± 1.1% in the series with hTERT-HMEC (setting [10]) and 5.63 ± 0.16% in the series on hTERT-HMEC (setting [11]).

For “MALTLFDTDEYRPPVWKSYLYQLQQEAPHPRRITCTCEVENRPKYYGREFHGMISREAADQLLIVAEGSYLIRESQRQPGTYTLALRFGSQTRNFRLYYDGKHFVGEKRFESIHDLVTDGLITLYIETKAAEYIAKMTINPIYEHVGYTTLNREPAYKKHMPVLKETHDERDSTGQDGVSEKRLTSLVRRATLKENEQIPKYEKIHNFKVHTFRGPHWCEYCANFMWGLIAQGVKCADCGLNVHKQCSKMVPNDCKPDLKHVKKVYSCDLTTLVKAHTTKRPMVVDMCIREIESRGLNSEGLYRVSGFSDLIEDVKMAFDRDGEKADISVNMYEDINIITGALKLYFRDLPIPLITYDAYPKFIESAKIMDPDEQLETLHEALKLLPPAHCETLRYLMAHLKRVTLHEKENLMNAENLGIVFGPTLMRSPELDAMAALNDIRYQRLVVELLIKNEDILF [B8ZZ96]”, the “percentage of EdU-negative” value amounted to 25.94 ± 0.25% in the series on MCF7 (setting [12]), 26.7 ± 0.53% with MCF7 (setting [13]), 4.91 ± 0.4% in the series on hTERT-HMEC (setting [12]) and 6.84 ± 1.4% with hTERT-HMEC (setting [13]).
